According to patent US5766897A, “Cysteine-pegylated proteins” (Incyte Pharmaceuticals, Inc., priority 1995, dated 1998):

Columns and labels:
[1] = molecular target: Thrombin (Homo sapiens, UniProt P00734); test: thrombin inhibition activity assay (D.4), specific activity; assay type: biochemical; conditions: for ACTIVITY, AFTER PEG MODIFICATION: after cysteine-PEGylation with Maleimido-PEG; for REL TO WT, BEFORE PEG MODIFICATION: activity relative to wild type PN-1; for REL TO ACTIVITY BEFORE PEG, AFTER PEG MODIFICATION: cysteine-PEGylated protein relative to same protein before PEGylation; for REL TO WT, AFTER PEG MODIFICATION: cysteine-PEGylated protein relative to wild type PN-1
Description: Refolded or soluble protein was tested for capacity to inhibit thrombin in a standard assay. Briefly, serial 2-fold dilutions of PN-1 variant were added to microtiter plate wells (50 μl/well), followed by 50 μl of a 30 μg/ml heparin solution, followed by 1 NIH unit of thrombin in 50 μl. These were allowed to incubate at 25° C. for 15 minutes. Residual thrombin activity was measured by the addition of 50 μl S-2238 (Kabi Pharmaceuticals) at 0.625 mg/ml. PN-1 variants were tested for their ability to inhibit urokinase using the substrate S-2444, plasmin using the substrate S-2390, tPA using the substrate S2288, Factor Xa using the substrate S-2222 or S-2765, kallikrein using the substrate S-2302, human neutrophil elastase using s-AAPV-pna (Sigma), cathepsin G using s-AAPF-pna (Sigma) in a similar manner, with or without the addition of heparin.
Each of the PN-1 site-directed mutant proteins, as well as wild type PN-1, were modified by cysteine-PEGylation using the protocol described in F.2. The activity of wild type PN-1, each of the PN-1 site-directed mutants, and the cysteine-PEGylated wild type and mutant proteins was determined using the assay described in D.4.

[2] = serum half-life after tail vein injection, sandwich ELISA; conditions: rat
From the text: The PN-1 variant N99C;N140C was PEGylated by reaction with the Maleimido-PEG reagent as described above in section G.2. Small scale reactions were first performed to determine the excess of Maleimido-PEG reagent required to drive the reaction to completion, i.e., to PEGylate both the N99C and N140C sites of the protein. The final PEGylation reaction contained about a 3-fold excess of Maleimido-PEG over the amount of N99C;N140C protein in the reaction mixture. Cysteine-PEGylated protein was purified by ion exchange chromatography as described in Section D3 above with an additional final Mono-S ion exchange step. The bis-modified,cysteine-PEGylated N99C;140C protein and unmodified N99C;N140C protein were resuspended in 50 mM PIPES pH 6.7, 150 mM NaCl, 10% glycerol.
The serum half-life of the PEGylated N99C;N140C variant was compared to the half-life of the unmodified N99C;N140C variant by injecting a 0.3 ml of a 3 mg/ml solution containing either the cysteine-PEGylated N99C;N140C or unmodified N99C;N140C into the tail vein of 200 g rats. At 2 min, 10 min, 30 min, 60 min, and 120 min after injection, a 0.5 ml blood sample was collected onto EDTA anticoagulant. The blood samples were centrifuged to separate plasma from blood cells, and the concentration of cysteine-PEGylated N99C;N140C or unmodified N99C;N140C determined by sandwich ELISA as described by Evans et al. (1991) J. Biol. Chem. 266:22307-22312, using a rabbit polyclonal antibody.

Row | Molecule | change of specific activity with increasing PEGylation reagent in reaction mixture (FIG. 4) ([1]; increasing ratio of PEG reagent to protein) | activity retained relative to unmodified PN-1 ([1]; reacted at a ratio of 3:1 Maleimido-PEG to protein) | enhancement of t1/2 by cysteine-PEGylation ([2]; in vivo) | total administered amount present in the blood stream ([2]; in vivo, 60 min) | t1/2 (serum half-life) ([2]; in vivo, iv) | ACTIVITY, AFTER PEG MODIFICATION [1] | SPECIFIC ACTIVITY, BEFORE PEG MODIFICATION [1] | REL TO WT, BEFORE PEG MODIFICATION [1] | REL TO ACTIVITY BEFORE PEG, AFTER PEG MODIFICATION [1] | REL TO WT, AFTER PEG MODIFICATION [1] | t1/2 (serum half-life) ([2]; tail vein injection) | total administered amount present in the blood stream ([2]; tail vein injection, 60 min time point)
1 | cysteine-PEGylated N99C;N140C: N99C;N140C PN-1 variant PEGylated at cysteines by reaction with Maleimido-PEG (PEG MW about 5,000) (conjugate, UniProt P07093 20-398, looked up, variant N99C N140C, cysteine-linked maleimido-PEG 5 kDa) Glia-derived nexin: SHFNPLSLEELGSNTGIQVFNQIVKSRPHDNIVISPHGIASVLGMLQLGADGRTKKQLAMVMRYGVNGVGKILKKINKAIVSKKNKDIVTVANAVFVKCASEIEVPFVTRNKDVFQCEVRNVNFEDPASACDSINAWVKCETRDMIDNLLSPDLIDGVLTRLVLVNAVYFKGLWKSRFQPENTKKRTFVAADGKSYQVPMLAQLSVFRCGSTSAPNDLWYNFIELPYHGESISMLIALPTESSTPLSAIIPHISTKTIDSWMSIMVPKRVQVILPKFTAVAQTDLKEPLKVLGITDMFDSSKANFAKITTGSENLHVSHILQKAKIEVSEDGTKASAATTAILIARSSPPWFIVDRPFLFFIRHNPTGAVLFMGQINKP | increased with an increasing amount of the Maleimido-PEG reagent | at least 100% | about 6 fold | 55-60% | 60 to 80 min |  |  |  |  |  |  | 
2 | N304C (conjugate, UniProt P07093 20-398, looked up, variant N304C, PEG) Glia-derived nexin: SHFNPLSLEELGSNTGIQVFNQIVKSRPHDNIVISPHGIASVLGMLQLGADGRTKKQLAMVMRYGVNGVGKILKKINKAIVSKKNKDIVTVANAVFVKNASEIEVPFVTRNKDVFQCEVRNVNFEDPASACDSINAWVKNETRDMIDNLLSPDLIDGVLTRLVLVNAVYFKGLWKSRFQPENTKKRTFVAADGKSYQVPMLAQLSVFRCGSTSAPNDLWYNFIELPYHGESISMLIALPTESSTPLSAIIPHISTKTIDSWMSIMVPKRVQVILPKFTAVAQTDLKEPLKVLGITDMFDSSKACFAKITTGSENLHVSHILQKAKIEVSEDGTKASAATTAILIARSSPPWFIVDRPFLFFIRHNPTGAVLFMGQINKP |  |  |  |  |  | 0.17 NIH units of thrombin inhibited per μg PN1 (variant) | 0.056 NIH units of thrombin inhibited per μg PN1 (variant) | 0.11 | 3 | 0.33 |  | 
3 | S263C (conjugate, UniProt P07093 20-398, looked up, variant S263C, PEG) Glia-derived nexin: SHFNPLSLEELGSNTGIQVFNQIVKSRPHDNIVISPHGIASVLGMLQLGADGRTKKQLAMVMRYGVNGVGKILKKINKAIVSKKNKDIVTVANAVFVKNASEIEVPFVTRNKDVFQCEVRNVNFEDPASACDSINAWVKNETRDMIDNLLSPDLIDGVLTRLVLVNAVYFKGLWKSRFQPENTKKRTFVAADGKSYQVPMLAQLSVFRCGSTSAPNDLWYNFIELPYHGESISMLIALPTESSTPLSAIIPHISTKTIDSWMCIMVPKRVQVILPKFTAVAQTDLKEPLKVLGITDMFDSSKANFAKITTGSENLHVSHILQKAKIEVSEDGTKASAATTAILIARSSPPWFIVDRPFLFFIRHNPTGAVLFMGQINKP |  |  |  |  |  | 0.093 NIH units of thrombin inhibited per μg PN1 (variant) | 0.05 NIH units of thrombin inhibited per μg PN1 (variant) | 0.1 | 1.86 | 0.19 |  | 
4 | C117S;C131S;C209S (protein, UniProt P07093 20-398, looked up, variant C117S C131S C209S) Glia-derived nexin: SHFNPLSLEELGSNTGIQVFNQIVKSRPHDNIVISPHGIASVLGMLQLGADGRTKKQLAMVMRYGVNGVGKILKKINKAIVSKKNKDIVTVANAVFVKNASEIEVPFVTRNKDVFQSEVRNVNFEDPASASDSINAWVKNETRDMIDNLLSPDLIDGVLTRLVLVNAVYFKGLWKSRFQPENTKKRTFVAADGKSYQVPMLAQLSVFRSGSTSAPNDLWYNFIELPYHGESISMLIALPTESSTPLSAIIPHISTKTIDSWMSIMVPKRVQVILPKFTAVAQTDLKEPLKVLGITDMFDSSKANFAKITTGSENLHVSHILQKAKIEVSEDGTKASAATTAILIARSSPPWFIVDRPFLFFIRHNPTGAVLFMGQINKP |  |  |  |  |  | 0.50 NIH units of thrombin inhibited per μg PN1 (variant) | 0.050 NIH units of thrombin inhibited per μg PN1 (variant) |  |  |  |  | 
5 | H252C (conjugate, UniProt P07093 20-398, looked up, variant H252C, PEG) Glia-derived nexin: SHFNPLSLEELGSNTGIQVFNQIVKSRPHDNIVISPHGIASVLGMLQLGADGRTKKQLAMVMRYGVNGVGKILKKINKAIVSKKNKDIVTVANAVFVKNASEIEVPFVTRNKDVFQCEVRNVNFEDPASACDSINAWVKNETRDMIDNLLSPDLIDGVLTRLVLVNAVYFKGLWKSRFQPENTKKRTFVAADGKSYQVPMLAQLSVFRCGSTSAPNDLWYNFIELPYHGESISMLIALPTESSTPLSAIIPCISTKTIDSWMSIMVPKRVQVILPKFTAVAQTDLKEPLKVLGITDMFDSSKANFAKITTGSENLHVSHILQKAKIEVSEDGTKASAATTAILIARSSPPWFIVDRPFLFFIRHNPTGAVLFMGQINKP |  |  |  |  |  | 0.25 NIH units of thrombin inhibited per μg PN1 (variant) | 0.10 NIH units of thrombin inhibited per μg PN1 (variant) | 0.20 | 2.5 | 0.50 |  | 
6 | N99C;N140C (protein, UniProt P07093 20-398, looked up, variant N99C N140C) Glia-derived nexin: SHFNPLSLEELGSNTGIQVFNQIVKSRPHDNIVISPHGIASVLGMLQLGADGRTKKQLAMVMRYGVNGVGKILKKINKAIVSKKNKDIVTVANAVFVKCASEIEVPFVTRNKDVFQCEVRNVNFEDPASACDSINAWVKCETRDMIDNLLSPDLIDGVLTRLVLVNAVYFKGLWKSRFQPENTKKRTFVAADGKSYQVPMLAQLSVFRCGSTSAPNDLWYNFIELPYHGESISMLIALPTESSTPLSAIIPHISTKTIDSWMSIMVPKRVQVILPKFTAVAQTDLKEPLKVLGITDMFDSSKANFAKITTGSENLHVSHILQKAKIEVSEDGTKASAATTAILIARSSPPWFIVDRPFLFFIRHNPTGAVLFMGQINKP |  |  |  |  |  | 0.40 NIH units of thrombin inhibited per μg PN1 (variant) | 0.20 NIH units of thrombin inhibited per μg PN1 (variant) | 0.40 | 2 | 0.80 | 10 to 12 min | less than 3%
7 | E230C (conjugate, UniProt P07093 20-398, looked up, variant E230C, PEG) Glia-derived nexin: SHFNPLSLEELGSNTGIQVFNQIVKSRPHDNIVISPHGIASVLGMLQLGADGRTKKQLAMVMRYGVNGVGKILKKINKAIVSKKNKDIVTVANAVFVKNASEIEVPFVTRNKDVFQCEVRNVNFEDPASACDSINAWVKNETRDMIDNLLSPDLIDGVLTRLVLVNAVYFKGLWKSRFQPENTKKRTFVAADGKSYQVPMLAQLSVFRCGSTSAPNDLWYNFIELPYHGCSISMLIALPTESSTPLSAIIPHISTKTIDSWMSIMVPKRVQVILPKFTAVAQTDLKEPLKVLGITDMFDSSKANFAKITTGSENLHVSHILQKAKIEVSEDGTKASAATTAILIARSSPPWFIVDRPFLFFIRHNPTGAVLFMGQINKP |  |  |  |  |  | 0.20 NIH units of thrombin inhibited per μg PN1 (variant) | 0.071 NIH units of thrombin inhibited per μg PN1 (variant) | 0.14 | 2.8 | 0.40 |  | 
